Data: patent publication US20160251435A1 (INHIBRX, published 2016)

Columns and labels:
[1] = target: T1, human CD47, endogenous cell surface form (Raji, CCRF-CEM cells) (human, UniProt Q08722 19-323); assay: flow cytometry on Raji cells (CD20-gated), signal normalised to the maximum of the antibody on that cell population
T1 construct: the cells carry endogenous CD47; also called cell surface CD47
Experimental: (§1) Cynomolgus peripheral blood mononuclear cells (PBMCs) were isolated from cynomolgus whole blood by ficoll-paque gradient centrifugation. […] Cells were analyzed by flow cytometry, first gated on live cells by FSC and SSC, then on cells positive for FL4 (CD20 positive), and lastly the median FL1 (CD47 positive) was measured. The data were normalized by dividing the signal at each concentration by the maximum signal for each antibody on each cell population.

[2] = target: T1, human CD47, endogenous cell surface …; assay: flow cytometry on CCRF-CEM cells, FITC anti-mouse IgG, MFI-FL1
Text: Bound CD47 antibodies were detected using a FITC conjugated anti-mouse IgG secondary antibody (Jackson ImmunoResearch).

[3] = target: T2, cynomolgus monkey CD47 on cynomolgus B-cells (cynomolgus monkey, UniProt A0A5F8AK49 19-323 (rhesus entry)); assay: flow cytometry on cynomolgus B-cells (CD20-gated PBMC), signal normalised to the maximum of the antibody on that cell population
T2 construct: whole, on cells; also called cyno CD47
Experimental: as §1

[4] = target: T3, recombinant His-tagged-CD47-IgV (human, UniProt Q08722 19-134); assay: blocking ELISA: SIRPa-Fc binding to immobilised His-CD47-IgV with rising antibody
T3 construct: not shown: His tag

[5] = target: T1, human CD47, endogenous cell surface …; assay: flow cytometry blocking: SIRPa-Fc binding to CCRF-CEM cells with rising antibody
[6] = target: T1, human CD47, endogenous cell surface …; assay: apparent KD, flow cytometry on Raji cells, non-linear fit of median fluorescence
[7] = target: human CD47, endogenous cell surface form (Raji, CCRF-CEM cells) (human) (UniProt Q08722); assay: as above
[8] = target: human CD47, endogenous cell surface form (Raji, CCRF-CEM cells) (human) (UniProt Q08722); assay: flow cytometry blocking: SIRPa-Fc binding to CCRF-CEM cells with rising antibody
[9] = target: human CD47, endogenous cell surface form (Raji, CCRF-CEM cells) (human) (UniProt Q08722); assay: cell-based or functional assay
[10] = target: human CD47, endogenous cell surface form (Raji, CCRF-CEM cells) (human) (UniProt Q08722); assay: flow cytometry on CCRF-CEM cells, FITC anti-mouse IgG, MFI-FL1

Row | EC50 (read off the curve) [1] | EC50 (read off the curve) [2] | EC50 (read off the curve) [3] | IC50 (read off the curve) [4] | IC50 (read off the curve) [5] | Kd [6] | Kd [7] | IC50 (read off the curve) [8] | phagocytosis of CFSE-labeled CCRF-CEM tumor cells by human monocyte derived macrophages [9] | EC50 (read off the curve) [10] | Binder
1 | ~0.4 nM | ~0.4 nM | ~0.4 nM | ~5 nM | ~0.7 nM | 0.0936 nM | – | – | – | – | murine CD47 antibody 2A1 (antibody, mouse IgG1, V domains shown, Hybridoma-derived mouse IgG1; also called 2A1-mIgG1; 2A1mIgG1) VH: EVQLQQSGAELVRSGASVKLSCTASGFNIKDYYLHWVKQRPEQGLEWIGWIDPDNGDTEFAPKFQGKATMTADTSSNTAYLQLSSLTSEDTAVYYCNAAYGSSSYPMDYWGQGTSVTV VL: DIKMTQSPSSLYASLGERVTITCKASQDIHRYLSWFQQKPGKSPKILIYRANRLVDGVPSRFSGSGSGQDYSLTISSLEYEDMGIYYCLQYDEFPYTFGGGTKLEMK
2 | – | – | – | – | – | – | 3.79 nM | 9 nM | > 66.7 pM | 3 nM | B6H12 CD47 antibody (antibody, from another filing, V domains shown) VH: EVKLVESGGDLVKPGGSLKLSCAASGFTFSGYGMSWVRQTPDKRLEWVATITSGGTYTYYPDSVKGRFTISRDNAKNTLYLQIDSLKSEDTAIYFCARSLAGNAMDYWGQGTSVTVSS VL: DIVMTQSPATLSVTPGDRVSLSCRASQTISDYLHWYQQKSHESPRLLIKFASQSISGIPSRFSGSGSGSDFTLSINSVEPEDVGVYYCQNGHGFPRTFGGGTKLEIK
